Laboratory results taken from patent US20030148973A1, “MAGE-A1 peptides for treating or preventing cancer” (priority 2001, published 2003).

Molecular target: HLA-A0201 molecules on the surface of T2 cells
Assay: T2 cell HLA-A0201 stabilization; 20 µg peptide on 10^6 acid-stripped T2 cells, BB7.2 staining, flow cytometry
Conditions: remark: other sources report otherwise

CLGLSYDGL [MAGE-A1 174]
Fluorescence Index (FI): 1.73 FI
